In US9938510B2, “Photobacterium sp. alpha-2-6-sialyltransferase variants” (The Regents of the University of California, priority 2014, dated 2018):

Assay: Sialyltransferase activity assays, statements not tied to one acceptor (LacβMU, GalNAcα2AA, GalNAcαSer, GalNAcαThr)
Assay type: biochemical
Details: α-linked N-acetyl galactosaminides, especially GalNAcα2AA or GalNAcαThr, as acceptor
Procedure: When LacβMU was used as an acceptor, the assay was performed in duplicate in 10 μL of Tris-HCl buffer (100 mM, pH 8.0) containing CMP-Neu5Ac (1 mM), LacβMU (1 mM), MgCl2 (20 mM), wild-type Psp2,6ST(15-501)-His6 or its mutant (0.3 μM). When an α-GalNAc-terminated acceptor was used, the assay was performed in duplicate in 10 μL of Tris-HCl buffer (100 mM, pH 8.0 for GalNAcαSer/Thr) or NaOAc-HOAc (100 mM, pH 5.0 for GalNAcα2AA) containing CMP-Neu5Ac (1.5 mM), the acceptor (1 mM), MgCl2 (20 mM), wild-type Psp2,6ST(15-501)-His6 or its mutant (3.0 μM). Reactions were allowed to proceed at 20° C. for 20 min and stopped by adding 10 μL of cold ethanol. The analysis of sialylated product conversion was performed using the HPLC system as described above for sialyltransferase activity assay. The 4-methylumbelliferone (MU)-labeled fluorescent acceptor and the product formed were detected with excitation at 325 nm and emission at 372 nm. The 2-aminobenzoic acid (2AA)-labeled fluorescent acceptors and the products formed were detected with excitation at 315 nm and emission at 400 nm. The 9-fluorenylmethylcarbamate (Fmoc)-labeled fluorescent acceptors and the products formed were detected with excitation at 262 nm and emission at 313 nm.

B1: A366G: Photobacterium sp. JH-ISH-224 α2-6-sialyltransferase residues 15-501, A366G point mutation, C-terminal His6; SEQ ID NO: 2 (protein)
chain: CNNSEENTQSIIKNDINKTIIDEEYVNLEPINQSNISFTKHSWVQTCGTQQLLTEQNKESISLSVVAPRLDDDEKYCFDFNGVSNKGEKYITKVTLNVVAPSLEVYVDHASLPTLQQLMDIIKSEEENPTAQRYIAWGRIVPTDEQMKELNITSFALINNHTPADLVQEIVKQAQTKHRLNVKLSSNTAHSFDNLVPILKELNSFNNVTVTNIDLYDDGSAEYVNLYNWRDTLNKTDNLKIGKDYLEDVINGINEDTSNTGTSSVYNWQKLYPANYHFLRKDYLTLEPSLHELRDYIGDSLKQMQWDGFKKFNSKQQELFLSIVNFDKQKLQNEYNSSNLPNFVFTGTTVWGGNHEREYYAKQQINVINNAINESSPHYLGNSYDLFFKGHPGGGIINTLIMQNYPSMVDIPSKISFEVLMMTDMLPDAVAGIASSLYFTIPAEKIKFIVFTSTETITDRETALRSPLVQVMIKLGIVKEENVLFWA
modifications: C-terminal His6; Synthetic Psp26ST(15-501) A366G
- sialyltransferase activity compared to wild-type: improved sialyltransferase activity
